{"source": "patent KR20210116113A", "binders": {"B1": {"name": "clone 1D1 항체 (scFv, anti-c-Myc-tag 1D1) (scFv)", "scFv": "LTQPSSVSANLGETQDHCSGGGSNSAYGWFQQKSPGSAPVTLIYDNTNRPSNIPSRFSGSKSGSTATLTITGVQADDEAVYYCGSAGSSYVGIFGAGTTLTVLGQSSRSSSGGGSSGGGGSAVTLDESGGGLQTPGGGLSLVCKGSGFTFSSYQMNWIRQAPGKGLEFVAAINRFGNRTGYGAAVKGRATISRGDGQSTVRLQLNNLRAEDTATYYCAKAAYGYCGSGGWRDVAGTDAWGHGTEVIVSSTS"}}, "key": {"[1]": {"molecular_target": "T1, c-Myc 펩타이드 (…)", "T1 sequence (peptide)": "MPLNVSFTSRNYDLD", "test": "ELISA, c-Myc peptide coated at 2 ug/ml, scFv at 4 ug/ml (replicate), anti-HA peroxidase detection"}, "[2]": {"molecular_target": "T1, c-Myc 펩타이드 (…)", "test": "ELISA, c-Myc peptide coated at 2 ug/ml, scFv at 1 ug/ml, anti-HA peroxidase detection"}, "[3]": {"molecular_target": "T1, c-Myc 펩타이드 (…)", "test": "ELISA, c-Myc peptide coated at 2 ug/ml, scFv at 4 ug/ml, anti-HA peroxidase detection"}, "[4]": {"molecular_target": "T1, c-Myc 펩타이드 (…)", "test": "ELISA, c-Myc peptide coated at 2 ug/ml, scFv at 0.5 ug/ml (replicate), anti-HA peroxidase detection"}, "[5]": {"molecular_target": "T1, c-Myc 펩타이드 (…)", "test": "ELISA, c-Myc peptide coated at 2 ug/ml, scFv at 2 ug/ml (replicate), anti-HA peroxidase detection"}, "[6]": {"molecular_target": "T1, c-Myc 펩타이드 (…)", "test": "ELISA, c-Myc peptide coated at 2 ug/ml, scFv at 0.5 ug/ml, anti-HA peroxidase detection"}, "[7]": {"molecular_target": "T1, c-Myc 펩타이드 (…)", "test": "ELISA, c-Myc peptide coated at 2 ug/ml, scFv at 2 ug/ml, anti-HA peroxidase detection"}, "[8]": {"molecular_target": "T1, c-Myc 펩타이드 (…)", "test": "ELISA, c-Myc peptide coated at 2 ug/ml, scFv at 1 ug/ml (replicate), anti-HA peroxidase detection"}}, "data": [{"binder": "B1", "values": [{"measurement": "absorbance at 450 nm (antigen(peptide) coating)", "setting": "[1]", "value": 2.17, "unit": "OD 450nm"}, {"measurement": "delta (absorbance at 450 nm minus background control)", "setting": "[1]", "value": 2.11, "unit": "OD 450nm"}, {"measurement": "absorbance at 450 nm (antigen(peptide) coating)", "setting": "[2]", "value": 0.808, "unit": "OD 450nm"}, {"measurement": "delta (absorbance at 450 nm minus background control)", "setting": "[2]", "value": 0.756, "unit": "OD 450nm"}, {"measurement": "absorbance at 450 nm (antigen(peptide) coating)", "setting": "[3]", "value": 2.15, "unit": "OD 450nm"}, {"measurement": "delta (absorbance at 450 nm minus background control)", "setting": "[3]", "value": 2.1, "unit": "OD 450nm"}, {"measurement": "absorbance at 450 nm (antigen(peptide) coating)", "setting": "[4]", "value": 0.431, "unit": "OD 450nm"}, {"measurement": "delta (absorbance at 450 nm minus background control)", "setting": "[4]", "value": 0.379, "unit": "OD 450nm"}, {"measurement": "absorbance at 450 nm (antigen(peptide) coating)", "setting": "[5]", "value": 1.3, "unit": "OD 450nm"}, {"measurement": "delta (absorbance at 450 nm minus background control)", "setting": "[5]", "value": 1.25, "unit": "OD 450nm"}, {"measurement": "absorbance at 450 nm (antigen(peptide) coating)", "setting": "[6]", "value": 0.415, "unit": "OD 450nm"}, {"measurement": "delta (absorbance at 450 nm minus background control)", "setting": "[6]", "value": 0.363, "unit": "OD 450nm"}, {"measurement": "absorbance at 450 nm (antigen(peptide) coating)", "setting": "[7]", "value": 1.31, "unit": "OD 450nm"}, {"measurement": "delta (absorbance at 450 nm minus background control)", "setting": "[7]", "value": 1.26, "unit": "OD 450nm"}, {"measurement": "absorbance at 450 nm (antigen(peptide) coating)", "setting": "[8]", "value": 0.788, "unit": "OD 450nm"}, {"measurement": "delta (absorbance at 450 nm minus background control)", "setting": "[8]", "value": 0.735, "unit": "OD 450nm"}]}]}
